Measured values reported in patent publication US7091027B1, “Transgenic amorpha-4,11-diene synthesis” (GenoClipp Biotechnology B.V., priority 1998, dated 2006).

Tested on: T1, CC(C)=CCC/C(C)=C/CC/C(C)=C/CO[P@@](=O)(O)OP(=O)(O)O
T1 construct: This enzyme preparation was used for the measurement of enzyme characteristics such as molecular weight and Km; from tissue; host or cells: young leaves of greenhouse-grown A. annua
Assay: Enzyme kinetics of Mono-Q purified amorphadiene synthase in the [3H]-FPP assay
Type: biochemical, A. annua
Conditions: other: 5- and 10-fold diluted Mono-Q eluted enzyme preparation, [3H]-FPP 0.25–100 μM, 30 min at 30° C.
Procedure: During enzyme isolation and preparation of the assays, all operations were carried out on ice or at 4° C. Ten grams of frozen young leaves from greenhouse-grown A. annua were ground in a pre-chilled mortar and pestle in 40 ml of pre-chilled buffer containing 25 mM MES (pH 5.5), 20% (v/v) glycerol, 25 mM sodium ascorbate, 25 mM NaHSO3, 10 mM MgCl2 and 5 mM DTT (buffer A) slurried with 1 g polyvinylpolypyrrolidone (PVPP) and a spatula tip of purified sea sand. Ten grams of polystyrene resin (Amberlite XAD-4, Serva) were added and the slurry was stirred carefully for 10 min and then filtered through cheesecloth. The filtrate was centrifuged at 20,000 g for 20 min (pellet discarded), and then at 100,000 g for 90 min. […]
The remainder of the supernatant was added to 12.5 g DEAE anion exchanger (Whatman DE-52), which had been rinsed several times with buffer A, and stirred carefully for 10 min. […] The molecular weight was determined using size-exclusion chromatography. 200 μl of the Mono-Q eluent was loaded on a Superdex 75 (H/R10/30, Pharmacia Biotech) and eluted in the same buffer as used for Mono-Q. Enzyme activities in 0.5 ml fractions were determined as described for Mono-Q, but using undiluted eluent. […] Enzyme-kinetics were determined using 5- and 10-fold diluted Mono-Q eluted enzyme preparation and [^3H]-FPP concentrations ranging from 0.25–100 μM. […]

Chain of amorphadiene synthase (Artemisia annua) (chain, as listed by the source): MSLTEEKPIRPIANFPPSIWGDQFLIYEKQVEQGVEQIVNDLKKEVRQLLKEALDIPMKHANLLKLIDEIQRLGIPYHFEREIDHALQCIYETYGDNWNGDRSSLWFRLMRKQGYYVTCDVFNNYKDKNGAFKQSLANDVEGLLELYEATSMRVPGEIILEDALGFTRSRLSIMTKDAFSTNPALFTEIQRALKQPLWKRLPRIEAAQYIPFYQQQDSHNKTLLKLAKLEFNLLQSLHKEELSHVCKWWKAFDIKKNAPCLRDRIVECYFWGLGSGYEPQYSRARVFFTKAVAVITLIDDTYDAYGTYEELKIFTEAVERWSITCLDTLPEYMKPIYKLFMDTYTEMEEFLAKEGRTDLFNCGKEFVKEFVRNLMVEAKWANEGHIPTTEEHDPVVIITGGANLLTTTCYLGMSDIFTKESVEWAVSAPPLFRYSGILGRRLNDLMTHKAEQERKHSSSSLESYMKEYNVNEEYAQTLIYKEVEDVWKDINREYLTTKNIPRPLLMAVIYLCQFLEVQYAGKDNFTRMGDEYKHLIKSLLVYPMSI

amorphadiene synthase (Artemisia annua)
Km: 0.6 µM
